Values belong to the binder of their own block, whether it stands above or below them.
Key:
P11mSN = molecular target: T1, P11mSN; assay: two-hybrid library CCNG1;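 also: natural log of median RNA to DNA barcode read ratio; higher means stronger binding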
T1 chain: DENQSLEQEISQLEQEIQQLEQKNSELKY

P12mSN = molecular target: T2, P12mSN; assay: two-hybrid library CCNG1;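 also: natural log of median RNA to DNA barcode read ratio; higher means stronger binding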
T2 chain: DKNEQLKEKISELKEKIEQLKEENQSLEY

P5mSN = molecular target: T3, P5mSN; assay: two-hybrid library CCNG1;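 also: natural log of median RNA to DNA barcode read ratio; higher means stronger binding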
T3 chain: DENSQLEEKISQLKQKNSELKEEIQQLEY

P8mSN = molecular target: T4, P8mSN; assay: two-hybrid library CCNG1;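 also: natural log of median RNA to DNA barcode read ratio; higher means stronger binding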
T4 chain: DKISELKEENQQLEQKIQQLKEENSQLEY

P6mSN = molecular target: T5, P6mSN; assay: two-hybrid library CCNG1;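 also: natural log of median RNA to DNA barcode read ratio; higher means stronger binding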
T5 chain: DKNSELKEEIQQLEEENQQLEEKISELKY

P1mSN = molecular target: T6, P1mSN; assay: two-hybrid library CCNG1;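 also: natural log of median RNA to DNA barcode read ratio; higher means stronger binding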
T6 chain: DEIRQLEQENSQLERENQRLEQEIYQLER

P4mSN = molecular target: T7, P4mSN; assay: two-hybrid library CCNG1
T7 chain: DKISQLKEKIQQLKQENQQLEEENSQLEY

P2mSN = molecular target: T8, P2mSN; assay: two-hybrid library CCNG1
T8 chain: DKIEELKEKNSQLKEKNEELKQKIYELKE

P7mSN = molecular target: T9, P7mSN; assay: two-hybrid library CCNG1
T9 chain: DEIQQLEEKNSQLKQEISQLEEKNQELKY

P3mSN = molecular target: T10, P3mSN; assay: two-hybrid library CCNG1
T10 chain: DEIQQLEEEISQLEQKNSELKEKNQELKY

P10mSN = molecular target: T11, P10mSN; assay: two-hybrid library CCNG1
T11 chain: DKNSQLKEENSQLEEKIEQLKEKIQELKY

P9mSN = molecular target: T12, P9mSN; assay: two-hybrid library CCNG1
T12 chain: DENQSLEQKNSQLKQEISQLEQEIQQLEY

4H2143-bA = molecular target: T13, 4H2143-bA; assay: two-hybrid library CCNG1
T13 chain: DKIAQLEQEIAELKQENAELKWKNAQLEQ

4H2233-bA = molecular target: T14, 4H2233-bA; assay: two-hybrid library CCNG1
T14 chain: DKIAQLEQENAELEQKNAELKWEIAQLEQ

4H3628-bA = molecular target: T15, 4H3628-bA; assay: two-hybrid library CCNG1
T15 chain: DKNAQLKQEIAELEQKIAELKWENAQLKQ

4H3041-bA = molecular target: T16, 4H3041-bA; assay: two-hybrid library CCNG1
T16 chain: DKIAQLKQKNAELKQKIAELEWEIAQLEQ

4H4073-bN = molecular target: T17, 4H4073-bN; assay: two-hybrid library CCNG1
T17 chain: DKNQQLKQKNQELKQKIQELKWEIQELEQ

4H2162-bA = molecular target: T18, 4H2162-bA; assay: two-hybrid library CCNG1
T18 chain: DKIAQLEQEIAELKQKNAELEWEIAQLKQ

4H730-bA = molecular target: T19, 4H730-bA; assay: two-hybrid library CCNG1
T19 chain: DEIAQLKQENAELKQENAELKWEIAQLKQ

4H166-bA = molecular target: T20, 4H166-bA; assay: two-hybrid library CCNG1
T20 chain: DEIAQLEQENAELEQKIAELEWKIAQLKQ

4H56-bA = molecular target: T21, 4H56-bA; assay: two-hybrid library CCNG1
T21 chain: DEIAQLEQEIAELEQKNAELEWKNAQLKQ

4H2859-bA = molecular target: T22, 4H2859-bA; assay: two-hybrid library CCNG1
T22 chain: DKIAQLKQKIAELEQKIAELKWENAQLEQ

4H2760-bA = molecular target: T23, 4H2760-bA; assay: two-hybrid library CCNG1
T23 chain: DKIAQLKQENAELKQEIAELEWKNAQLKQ

4H932-bA = molecular target: T24, 4H932-bA; assay: two-hybrid library CCNG1
T24 chain: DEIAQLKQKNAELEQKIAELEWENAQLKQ

4H264-bA = molecular target: T25, 4H264-bA; assay: two-hybrid library CCNG1
T25 chain: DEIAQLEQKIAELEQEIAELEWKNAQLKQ

4H3364-bA = molecular target: T26, 4H3364-bA; assay: two-hybrid library CCNG1
T26 chain: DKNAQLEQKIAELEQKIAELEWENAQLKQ

4H796-bA = molecular target: T27, 4H796-bA; assay: two-hybrid library CCNG1
T27 chain: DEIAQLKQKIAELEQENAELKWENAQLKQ

4H2931-bA = molecular target: T28, 4H2931-bA; assay: two-hybrid library CCNG1
T28 chain: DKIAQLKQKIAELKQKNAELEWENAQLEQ

4H235-bA = molecular target: T29, 4H235-bA; assay: two-hybrid library CCNG1
T29 chain: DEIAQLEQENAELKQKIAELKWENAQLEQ

4H2585-bA = molecular target: T30, 4H2585-bA; assay: two-hybrid library CCNG1
T30 chain: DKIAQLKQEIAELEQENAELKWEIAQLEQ

4H349-bA = molecular target: T31, 4H349-bA; assay: two-hybrid library CCNG1
T31 chain: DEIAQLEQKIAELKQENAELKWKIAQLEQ

4H3381-bA = molecular target: T32, 4H3381-bA; assay: two-hybrid library CCNG1
T32 chain: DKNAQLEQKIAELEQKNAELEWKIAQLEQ

4H2444-bA = molecular target: T33, 4H2444-bA; assay: two-hybrid library CCNG1
T33 chain: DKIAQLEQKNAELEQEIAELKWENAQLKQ

4H949-bA = molecular target: T34, 4H949-bA; assay: two-hybrid library CCNG1
T34 chain: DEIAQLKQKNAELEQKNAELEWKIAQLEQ

4H2253-bA = molecular target: T35, 4H2253-bA; assay: two-hybrid library CCNG1
T35 chain: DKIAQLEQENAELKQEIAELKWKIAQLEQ

4H3297-bA = molecular target: T36, 4H3297-bA; assay: two-hybrid library CCNG1
T36 chain: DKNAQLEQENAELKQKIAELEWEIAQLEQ

4H2518-bA = molecular target: T37, 4H2518-bA; assay: two-hybrid library CCNG1
T37 chain: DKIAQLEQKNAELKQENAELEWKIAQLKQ

Core_NIIN-es_KKEK = molecular target: T38, Core_NIIN-es_KKEK; assay: two-hybrid library CCmax; settings: mean of both orientations
T38 chain: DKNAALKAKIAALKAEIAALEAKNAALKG

Core_NNIN-es_KKEK = molecular target: T39, Core_NNIN-es_KKEK; assay: two-hybrid library CCmax; settings: mean of both orientations
T39 chain: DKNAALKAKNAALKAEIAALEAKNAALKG

P9A = molecular target: T40, P9A; assay: two-hybrid library CCNG1
T40 chain: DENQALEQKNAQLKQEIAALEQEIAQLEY

P4A = molecular target: T41, P4A; assay: two-hybrid library CCNG1
T41 chain: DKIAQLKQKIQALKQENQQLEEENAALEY

P6A = molecular target: T42, P6A; assay: two-hybrid library CCNG1
T42 chain: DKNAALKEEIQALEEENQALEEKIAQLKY

P7A = molecular target: T43, P7A; assay: two-hybrid library CCNG1
T43 chain: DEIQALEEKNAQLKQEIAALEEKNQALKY

P2A = molecular target: T44, P2A; assay: two-hybrid library CCNG1
T44 chain: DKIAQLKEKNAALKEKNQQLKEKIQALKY

P3A = molecular target: T45, P3A; assay: two-hybrid library CCNG1
T45 chain: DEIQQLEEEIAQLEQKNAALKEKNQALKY

P10A = molecular target: T46, P10A; assay: two-hybrid library CCNG1
T46 chain: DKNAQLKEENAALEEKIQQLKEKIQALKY

P8A = molecular target: T47, P8A; assay: two-hybrid library CCNG1
T47 chain: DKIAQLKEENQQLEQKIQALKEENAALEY

P12A = molecular target: T48, P12A; assay: two-hybrid library CCNG1
T48 chain: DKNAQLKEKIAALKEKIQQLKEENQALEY

P11A = molecular target: T49, P11A; assay: two-hybrid library CCNG1
T49 chain: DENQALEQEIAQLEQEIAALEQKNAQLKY

P1A = molecular target: T50, P1A; assay: two-hybrid library CCNG1
T50 chain: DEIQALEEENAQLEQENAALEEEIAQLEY

P5A = molecular target: T51, P5A; assay: two-hybrid library CCNG1
T51 chain: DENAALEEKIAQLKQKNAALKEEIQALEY

Core_NNNI-es_KKKK = molecular target: T52, Core_NNNI-es_KKKK; assay: two-hybrid library CCmax; settings: mean of both orientations
T52 chain: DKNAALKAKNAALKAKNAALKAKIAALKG

Core_NNIN-es_KKKK = molecular target: T53, Core_NNIN-es_KKKK; assay: two-hybrid library CCmax; settings: mean of both orientations
T53 chain: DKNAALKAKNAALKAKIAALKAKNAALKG

Core_NNII-es_KKKE = molecular target: T54, Core_NNII-es_KKKE; assay: two-hybrid library CCmax; settings: mean of both orientations
T54 chain: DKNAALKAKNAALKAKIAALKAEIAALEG

Core_NIII-es_KEKK = molecular target: T55, Core_NIII-es_KEKK; assay: two-hybrid library CCmax; settings: mean of both orientations
T55 chain: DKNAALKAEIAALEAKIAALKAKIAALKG

Core_NNIN-es_KKKE = molecular target: T56, Core_NNIN-es_KKKE; assay: two-hybrid library CCmax; settings: mean of both orientations
T56 chain: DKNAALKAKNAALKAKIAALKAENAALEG

interaction score (P11mSN): -0.495 | interaction score (P12mSN): -0.911 | interaction score (P5mSN): -0.891 | interaction score (P8mSN): -0.586 | interaction score (P6mSN): -0.212 | interaction score (P1mSN): 0.0169 | interaction score (P4mSN): -0.959 | interaction score (P2mSN): -1.62 | interaction score (P7mSN): 0.521 | interaction score (P3mSN): -0.696 | interaction score (P10mSN): 0.0645 | interaction score (P9mSN): 0.647
B1: P10mSN (peptide)
chain: DKNSQLKEENSQLEEKIEQLKEKIQELKY

interaction score (4H2143-bA): -0.442 | interaction score (4H2233-bA): 0.472 | interaction score (4H3628-bA): -0.111 | interaction score (4H3041-bA): 1.54 | interaction score (4H4073-bN): 1.76 | interaction score (4H2162-bA): 0.273 | interaction score (4H730-bA): -0.818 | interaction score (4H166-bA): 1.79 | interaction score (4H56-bA): -0.289 | interaction score (4H2859-bA): 1.07 | interaction score (4H2760-bA): 1.38 | interaction score (4H932-bA): -0.303 | interaction score (4H264-bA): 1.18 | interaction score (4H3364-bA): -0.668 | interaction score (4H796-bA): -0.288 | interaction score (4H2931-bA): 1.56 | interaction score (4H235-bA): 0.308 | interaction score (4H2585-bA): -0.344 | interaction score (4H349-bA): -0.678 | interaction score (4H3381-bA): 0.0741 | interaction score (4H2444-bA): 0.00294 | interaction score (4H949-bA): 0.655 | interaction score (4H2253-bA): 0.212 | interaction score (4H3297-bA): 1.92 | interaction score (4H2518-bA): 2.14
B2: 4H166-bA (peptide)
chain: DEIAQLEQENAELEQKIAELEWKIAQLKQ

interaction score (Core_NIIN-es_KKEK): 1.96
B3: Core_NIIN-es_EEKE (peptide)
chain: DENAALEAEIAALEAKIAALKAENAALEG

interaction score (Core_NNIN-es_KKEK): 2.2
B4: Core_NNIN-es_EEKE (peptide)
chain: DENAALEAENAALEAKIAALKAENAALEG

interaction score (P9A): 2.37 | interaction score (P4A): -0.619 | interaction score (P6A): 0.00329 | interaction score (P7A): 1.36 | interaction score (P2A): -0.904 | interaction score (P3A): 0.616 | interaction score (P10A): -0.322 | interaction score (P8A): -0.507 | interaction score (P12A): -0.26 | interaction score (P11A): 0.405 | interaction score (P1A): 0.349 | interaction score (P5A): -0.424
B5: P10A (peptide)
chain: DKNAQLKEENAALEEKIQQLKEKIQALKY

interaction score (Core_NNNI-es_KKKK): 2.16
B6: Core_NNNI-es_EEEE (peptide)
chain: DENAALEAENAALEAENAALEAEIAALEG

interaction score (Core_NNIN-es_KKKK): 1.83
B7: Core_NNIN-es_EEEE (peptide)
chain: DENAALEAENAALEAEIAALEAENAALEG

interaction score (Core_NNII-es_KKKE): 2.42
B8: Core_NNII-es_EEEK (peptide)
chain: DENAALEAENAALEAEIAALEAKIAALKG

interaction score (Core_NIII-es_KEKK): 1.92
B9: Core_NIII-es_EKEE (peptide)
chain: DENAALEAKIAALKAEIAALEAEIAALEG

interaction score (Core_NNIN-es_KKKE): 2.07
B10: Core_NNIN-es_EEEK (peptide)
chain: DENAALEAENAALEAEIAALEAKNAALKG
